According to patent US20250277057A1 (OKLAHOMA MEDICAL RESEARCH FOUNDATION, published 2025):

Target: T1, human activated protein C (human, UniProt P04070 43-197; P04070 212-461)
T1 construct: In the plasma assays aPC is generated in human plasma with Protac; also called aPC; haPC
Assay: KD ELISA ranking, direct antigen coating ELISA of Fab

Binder	Bmax
R2-9C1 (Fab, V domains shown, Combinatorial mutant Fab of HAPC-14; also called combinatorial mutant No. 16) VH: EVQLVESGGGLVQPGGSLRLSCAASGFTFSFYYLNWVRQAPGKGLEWVGDIRLKKNNYEKHYAESVKGRFTISRDDSKSITYLQMNSLRAEDTAVYYCAREGDYFDYWGQGTTVTVSS VL: DIQLTQSPSSLSASVGDRVTITCRASESVDSFGATFMHWYQQKPGKAPKLLIYLASWLESGVPSRFSGSGSGTDFTLTISSLQPEDFATYYCVQNNEDPYTFGQGTKLEIK	1.09
R2-23H2 (Fab, V domains shown, Combinatorial mutant Fab of HAPC-14; also called combinatorial mutant No. 2) VH: EVQLVESGGGLVQPGGSLRLSCAASGFTFSFYYLNWVRQAPGKGLEWVGDIRLKKNNYEKHYAESVKGRFTISRDDSKSITYLQMNSLRAEDTAVYYCAREGDYFDYWGQGTTVTVSS VL: DIQLTQSPSSLSASVGDRVTITCRASESVDSFGATFMHWYQQKPGKAPKLLIYLASWLGSGVPSRFSGSGSGTDFTLTISSLQPEDFATYYCQQNNEDPYTFGQGTKLEIK	1.26
R2-22A10 (Fab, V domains shown, Combinatorial mutant Fab of HAPC-14; also called combinatorial mutant No. 9) VH: EVQLVESGGGLVQPGGSLRLSCAASGFTFSFYYLNWVRQAPGKGLEWVGDIRLKKNNYEKHYAESVKGRFTISRDDSKSITYLQMNSLRAEDTAVYYCAREGDYFDYWGQGTTVTVSS VL: DIQLTQSPSSLSASVGDRVTITCRASESVDSFGATFMHWYQQKPGKAPKLLIYLASRLESGVPSRFSGSGSGTDFTLTISSLQPEDFATYYCVQNNEDPYTFGQGTKLEIK	1.01
R2-23E10 (Fab, V domains shown, Combinatorial mutant Fab of HAPC-14; also called combinatorial mutant No. 12) VH: EVQLVESGGGLVQPGGSLRLSCAASGFTFSFYYLNWVRQAPGKGLEWVGDIRLKSNNYEKHYAESVKGRFTISRDDSKSITYLQMNSLRAEDTAVYYCAREGDYFDYWGQGTTVTVSS VL: DIQLTQSPSSLSASVGDRVTITCRASESVDSFGATFMHWYQQKPGKAPKLLIYLASWLGSGVPSRFSGSGSGTDFTLTISSLQPEDFATYYCQQNNEDPYTFGQGTKLEIK	1.24
R2-24D4 (Fab, V domains shown, Combinatorial mutant Fab of HAPC-14; also called combinatorial mutant No. 10) VH: EVQLVESGGGLVQPGGSLRLSCAASGFTFSFYYLNWVRQAPGKGLEWVGDIRLKKNNYEKHYAESVKGRFTISRDDSKSITYLQMNSLRAEDTAVYYCAREGDTFDYWGQGTTVTVSS VL: DIQLTQSPSSLSASVGDRVTITCRASESVDSFGATFMHWYQQKPGKAPKLLIYLASWLPSGVPSRFSGSGSGTDFTLTISSLQPEDFATYYCQQNNEDPYTFGQGTKLEIK	0.717
R2-24F3 (Fab, V domains shown, Combinatorial mutant Fab of HAPC-14; Printed CDRs are the same as those of R2-32E6; also called combinatorial mutant No. 1) VH: EVQLVESGGGLVQPGGSLRLSCAASGFTFSFYYLNWVRQAPGKGLEWVGDIRLKKNNYEKHYAESVKGRFTISRDDSKSITYLQMNSLRAEDTAVYYCAREGDYFDYWGQGTTVTVSS VL: DIQLTQSPSSLSASVGDRVTITCRASESVDSFGATFMHWYQQKPGKAPKLLIYLASWLGSGVPSRFSGSGSGTDFTLTISSLQPEDFATYYCVQNNEDPYTFGQGTKLEIK	1.37
R2-22B6 (Fab, V domains shown, Combinatorial mutant Fab of HAPC-14; also called combinatorial mutant No. 15) VH: EVQLVESGGGLVQPGGSLRLSCAASGFTFSFYYLNWVRQAPGKGLEWVGDIRLKSNNYEKHYAESVKGRFTISRDDSKSITYLQMNSLRAEDTAVYYCAREGDYFDYWGQGTTVTVSS VL: DIQLTQSPSSLSASVGDRVTITCRASESVDSFGATFMHWYQQKPGKAPKLLIYLASRLGSGVPSRFSGSGSGTDFTLTISSLQPEDFATYYCQQNNEDPYTFGQGTKLEIK	1.21

Results, then the binder that gave them:

Bmax	Binder
0.715	R2-27G7 (Fab, V domains shown, Combinatorial mutant Fab of HAPC-14; also called combinatorial mutant No. 6) VH: EVQLVESGGGLVQPGGSLRLSCAASGFTFSFYYLNWVRQAPGKGLEWVGDIRLKKNNYEKHYAESVKGRFTISRDDSKSITYLQMNSLRAEDTAVYYCAREGDYFDYWGQGTTVTVSS VL: DIQLTQSPSSLSASVGDRVTITCRASESVDSFGATFMHWYQQKPGKAPKLLIYLASRLGSGVPSRFSGSGSGTDFTLTISSLQPEDFATYYCQQNNEDPYTFGQGTKLEIK
1.41	R2-32E6 (Fab, V domains shown, Combinatorial mutant Fab of HAPC-14; Printed CDRs are the same as those of R2-24F3; also called combinatorial mutant No. 14) VH: EVQLVESGGGLVQPGGSLRLSCAASGFTFSFYYLNWVRQAPGKGLEWVGDIRLKKNNYEKHYAESVKGRFTISRDDSKSITYLQMNSLRAEDTAVYYCAREGDYFDYWGQGTTVTVSS VL: DIQLTQSPSSLSASVGDRVTITCRASESVDSFGATFMHWYQQKPGKAPKLLIYLASWLGSGVPSRFSGSGSGTDFTLTISSLQPEDFATYYCVQNNEDPYTFGQGTKLEIK
1.25	R2-24H1 (Fab, V domains shown, Combinatorial mutant Fab of HAPC-14; also called combinatorial mutant No. 8) VH: EVQLVESGGGLVQPGGSLRLSCAASGFTFSFYYLNWVRQAPGKGLEWVGDIRLKSNNYEKHYAESVKGRFTISRDDSKSITYLQMNSLRAEDTAVYYCAREGDYFDYWGQGTTVTVSS VL: DIQLTQSPSSLSASVGDRVTITCRASESVDSFGATFMHWYQQKPGKAPKLLIYLASRLGSGVPSRFSGSGSGTDFTLTISSLQPEDFATYYCVQNNEDPYTFGQGTKLEIK
0.617	R2-30F7 (Fab, V domains shown, Combinatorial mutant Fab of HAPC-14; also called combinatorial mutant No. 11) VH: EVQLVESGGGLVQPGGSLRLSCAASGFTFSFYYLNWVRQAPGKGLEWVGDIRLKSNNYEKHYAESVKGRFTISRDDSKSITYLQMNSLRAEDTAVYYCAREGDYFDYWGQGTTVTVSS VL: DIQLTQSPSSLSASVGDRVTITCRASESVDSFGATFMHWYQQKPGKAPKLLIYLASRLPSGVPSRFSGSGSGTDFTLTISSLQPEDFATYYCVQNNEDPYTFGQGTKLEIK
0.96	R2-29D9 (Fab, V domains shown, Combinatorial mutant Fab of HAPC-14; also called combinatorial mutant No. 7) VH: EVQLVESGGGLVQPGGSLRLSCAASGFTFSFYYLNWVRQAPGKGLEWVGDIRLKKNNYEKHYAESVKGRFTISRDDSKSITYLQMNSLRAEDTAVYYCAREGDTFDYWGQGTTVTVSS VL: DIQLTQSPSSLSASVGDRVTITCRASESVDSFGATFMHWYQQKPGKAPKLLIYLASRLPSGVPSRFSGSGSGTDFTLTISSLQPEDFATYYCVQNNEDPYTFGQGTKLEIK
1.07	R2-25B7 (Fab, V domains shown, Combinatorial mutant Fab of HAPC-14; also called combinatorial mutant No. 5) VH: EVQLVESGGGLVQPGGSLRLSCAASGFTFSFYYLNWVRQAPGKGLEWVGDIRLKSNNYEKHYAESVKGRFTISRDDSKSITYLQMNSLRAEDTAVYYCAREGDYFDYWGQGTTVTVSS VL: DIQLTQSPSSLSASVGDRVTITCRASESVDSFGATFMHWYQQKPGKAPKLLIYLASWLPSGVPSRFSGSGSGTDFTLTISSLQPEDFATYYCVQNNEDPYTFGQGTKLEIK
1.04	R2-25G5 (Fab, V domains shown, Combinatorial mutant Fab of HAPC-14; also called combinatorial mutant No. 3) VH: EVQLVESGGGLVQPGGSLRLSCAASGFTFSFYYLNWVRQAPGKGLEWVGDIRLKKNNYEKHYAESVKGRFTISRDDSKSITYLQMNSLRAEDTAVYYCAREGDYFDYWGQGTTVTVSS VL: DIQLTQSPSSLSASVGDRVTITCRASESVDSFGATFMHWYQQKPGKAPKLLIYLASWLPSGVPSRFSGSGSGTDFTLTISSLQPEDFATYYCVQNNEDPYTFGQGTKLEIK
1.21	R2-26E4 (Fab, V domains shown, Combinatorial mutant Fab of HAPC-14; also called combinatorial mutant No. 4) VH: EVQLVESGGGLVQPGGSLRLSCAASGFTFSFYYLNWVRQAPGKGLEWVGDIRLKKNNYEKHYAESVKGRFTISRDDSKSITYLQMNSLRAEDTAVYYCAREGDYFDYWGQGTTVTVSS VL: DIQLTQSPSSLSASVGDRVTITCRASESVDSFGATFMHWYQQKPGKAPKLLIYLASRLGSGVPSRFSGSGSGTDFTLTISSLQPEDFATYYCVQNNEDPYTFGQGTKLEIK
